Measured values: publication PMC9772228, “Structure of a RecT/Redβ family recombinase in complex with a duplex intermediate of DNA annealing”
Changes are numbered by the printed parent chain.

Columns and labels:
Experiment in all cases: EMSA; EMSA: PBS pH 7.4 (or KH2PO4/10 mM MgCl2 pH 6.0), 3.6 or 5 uM protein, 25 uM nt DNA, 37 C 15 min per strand, 0.8% agarose 1x TBE; cryo-EM: 20 mM KH2PO4 (Results: 10 mM), 10 mM MgCl2 pH 6.0, 37 C; native MS: 100 mM ammonium acetate pH 7, 37 C
Conditions in all cases: protein: recombinant, tags: N-terminal 6His vector tag (20 aa) retained, chain copies: 10
[1] = target: T1, LiRecT K215A/W216A (Listeria innocua CLIP 11262, UniProt Q92FL9 1-271, K215A;W216A)
T1 sequence: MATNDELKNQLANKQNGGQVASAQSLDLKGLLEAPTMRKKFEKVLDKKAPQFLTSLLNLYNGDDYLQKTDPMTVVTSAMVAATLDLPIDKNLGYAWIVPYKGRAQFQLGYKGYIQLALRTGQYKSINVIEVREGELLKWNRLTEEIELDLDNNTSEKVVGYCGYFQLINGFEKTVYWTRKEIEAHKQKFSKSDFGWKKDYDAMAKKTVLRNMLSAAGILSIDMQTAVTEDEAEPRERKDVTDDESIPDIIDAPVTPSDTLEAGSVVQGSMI

[2] = target: T2, LiRecT Y100A (Listeria innocua CLIP 11262, UniProt Q92FL9 1-271, Y100A)
T2 sequence: T1 sequence with Y100A, A215K, A216W

[3] = target: T3, LiRecT V98A/Y100A (Listeria innocua CLIP 11262, UniProt Q92FL9 1-271, V98A;Y100A)
T3 sequence: T1 sequence with V98A, Y100A, A215K, A216W

[4] = target: T4, LiRecT V98A/Y100A/Q107A (Listeria innocua CLIP 11262, UniProt Q92FL9 1-271, V98A;Y100A;Q107A)
T4 sequence: T1 sequence with V98A, Y100A, Q107A, A215K, A216W

[5] = target: T5, LiRecT Q107H (Listeria innocua CLIP 11262, UniProt Q92FL9 1-271, Q107H)
T5 sequence: T1 sequence with Q107H, A215K, A216W

[6] = label: 5'-Cy3;5'-Cy5, 49 bp, 1 nt 5' overhang at each end

B1: Cy3-50mer (ssDNA)
DNA: GCGGATGGCTTAGAGCAGAATCGCCCTGCATAGCTCGATTTTTGCGGATG
[1]; label: 5'-Cy3, single strand
  binding result: no binding
[2]; label: 5'-Cy3, single strand
  binding result: binds
[3]; label: 5'-Cy3, single strand
  binding result: binds
[4]; label: 5'-Cy3, single strand
  binding result: binds
[5]; label: 5'-Cy3, single strand
  binding result: binds

B2: Cy5-50mer (ssDNA)
DNA: CCATCCGCAAAAATCGAGCTATGCAGGGCGATTCTGCTCTAAGCCATCCG
[1]; label: 5'-Cy5, single strand
  binding result: no binding
[2]; label: 5'-Cy5, single strand
  binding result: binds
[3]; label: 5'-Cy5, single strand
  binding result: binds
[4]; label: 5'-Cy5, single strand
  binding result: binds
[5]; label: 5'-Cy5, single strand
  binding result: binds

B3: 50-mer duplex intermediate (sequential addition) (dsDNA)
DNA 1: B1 DNA
DNA 2: B2 DNA
[1]; [6]
  binding result: no binding
[2]; [6]
  binding result: binds
[3]; [6]
  binding result: binds
[4]; [6]
  binding result: binds
[5]; [6]
  binding result: binds
